Reference: article PMC8531451, “1,1'-Carbonyldiimidazole-copper nanoflower enhanced collapsible laser scribed graphene engraved microgap capacitive aptasensor for the detection of milk allergen”

Biological target: T1, beta-lactoglobulin (bovine, UniProt P02754 17-178)
T1 sequence: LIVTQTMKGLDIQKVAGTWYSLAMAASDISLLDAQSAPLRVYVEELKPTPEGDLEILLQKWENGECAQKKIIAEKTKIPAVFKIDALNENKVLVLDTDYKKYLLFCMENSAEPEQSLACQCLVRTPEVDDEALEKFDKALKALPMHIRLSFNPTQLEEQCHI
Assay: non-faradaic capacitive aptasensor; CDI-Cu nanoflower/LSG microgap; linear 1 ag/ml-100 fg/ml, LOD 1 ag/ml; Sensor: 10 mM PBS pH 7.4, target incubated 10 min; aptamer folded in 1 mM MgCl2, 10 mM PBS (90 °C 5 min); ELASA: coating at 4 °C overnight, 2% BSA block, PBS washes
Settings: protein: commercial; chain copies: 2; label: biotin; 3' A tail of aptamer paired with T20 oligolinker; aptamer part single-stranded

B1: beta-lactoglobulin aptamer with 3' A tail, annealed to biotinylated T20 oligolinker (mixed)
DNA 1: ATACCAGCTTATTCAATTCGACGATCGGACCGCAGTACCCACCCACCAGCCCCAACATCATGCCCATCCGTGTGTGAGATAGTAAGTGCAATCTAAAAAAAAAAAAAAAAAAAAAAAA
DNA 2: TTTTTTTTTTTTTTTTTTTT
modifications: 5' biotin (5Biosg) on oligolinker S1
binding result: binds
